According to article PMC4361584, “Glyceraldehyde 3-Phosphate Dehydrogenase-Telomere Association Correlates with Redox Status in Trypanosoma cruzi”:

B1: ss (TTAGGG)1 (ssDNA)
DNA: TTAGGG
B2: ss (TTAGGG)3 (ssDNA)
DNA: TTAGGGTTAGGGTTAGGG
B3: ss (TTAGGG)6 (ssDNA)
DNA: TTAGGGTTAGGGTTAGGGTTAGGGTTAGGGTTAGGG

Legend:
[1] = target: T1, rTcGAPDH (glyceraldehyde 3-phosphate dehydrogenase) (Trypanosoma cruzi, UniProt P22513 1-359); test: EMSA; 50 uM GAPDH; 1x from 5x buffer: 20 mM HEPES pH 6.0, 1 mM EDTA, 10 mM (NH4)2SO4, 1 mM DTT, 0.2% Tween 20, 30 mM KCl; 0.1 ug poly-lysine, 1 ug poly[d(I-C)], 20 ul, on ice 15 min; 6% native gel, 0.25x TBE; details: protein: recombinant; tags: His-tag; chain copies: 4; label: DIG-11-ddUTP at 3' end; single strand
[2] = target: T1, rTcGAPDH (glyceraldehyde 3-phosphate …); test: EMSA; supershift with anti-GAPDH serum; 1x from 5x buffer: 20 mM HEPES pH 6.0, 1 mM EDTA, 10 mM (NH4)2SO4, 1 mM DTT, 0.2% Tween 20, 30 mM KCl; 0.1 ug poly-lysine, 1 ug poly[d(I-C)], 20 ul, on ice 15 min; 6% native gel, 0.25x TBE; details: protein: recombinant; tags: His-tag; chain copies: 4; label: DIG-11-ddUTP at 3' end (terminal transferase); single strand

T1 sequence (P22513 whole entry): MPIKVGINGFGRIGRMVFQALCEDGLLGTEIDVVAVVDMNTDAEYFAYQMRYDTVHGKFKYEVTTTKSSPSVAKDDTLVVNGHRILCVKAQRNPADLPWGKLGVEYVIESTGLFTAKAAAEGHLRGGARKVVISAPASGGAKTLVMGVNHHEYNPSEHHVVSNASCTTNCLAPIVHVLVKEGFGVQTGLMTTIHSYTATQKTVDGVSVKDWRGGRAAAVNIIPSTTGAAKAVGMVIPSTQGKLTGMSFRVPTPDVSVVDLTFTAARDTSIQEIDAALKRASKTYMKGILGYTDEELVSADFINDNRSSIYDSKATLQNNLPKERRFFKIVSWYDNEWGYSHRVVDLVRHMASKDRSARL

Binder	binding result [1]	binding result [2]
B1	binds	–
B2	binds	–
B3	–	binds
